The results in this text go back to publication PMC10267149, “The structure of phosphatidylinositol remodeling MBOAT7 reveals its catalytic mechanism and enables inhibitor identification” (Nature Communications, 2023).

Substrate in this data set: CCCCC/C=C\C/C=C\C/C=C\C/C=C\CCCC(=O)SCCNC(=O)CCNC(=O)[C@H](O)C(C)(C)COP(=O)(O)OP(=O)(O)OC[C@H]1O[C@@H](n2cnc3c(N)ncnc32)[C@H](O)[C@@H]1OP(=O)(O)O
As to the kind of experiment: fluorescence assay of CoA-SH release with CPM. The class given is biochemical, Homo sapiens. To be noted: PMAL-C8 reconstituted, 100 µM lyso-PI, pH 7.5, 37 °C, 2 mg/ml BSA.

B1: MBOAT7 (Homo sapiens) (protein)
chain: MSPEEWTYLVVLLISIPIGFLFKKAGPGLKRWGAAAVGLGLTLFTCGPHTLHSLVTILGTWALIQAQPCSCHALALAWTFSYLLFFRALSLLGLPTPTPFTNAVQLLLTLKLVSLASEVQDLHLAQRKEMASGFSKGPTLGLLPDVPSLMETLSYSYCYVGIMTGPFFRYRTYLDWLEQPFPGAVPSLRPLLRRAWPAPLFGLLFLLSSHLFPLEAVREDAFYARPLPARLFYMIPVFFAFRMRFYVAWIAAECGCIAAGFGAYPVAAKARAGGGPTLQCPPPSSPEKAASLEYDYETIRNIDCYSTDFCVRVRDGMRYWNMTVQWWLAQYIYKSAPARSYVLRSAWTMLLSAYWHGLHPGYYLSFLTIPLCLAAEGRLESALRGRLSPGGQKAWDWVHWFLKMRAYDYMCMGFVLLSLADTLRYWASIYFCIHFLALAALGLGLALGGGSPSRRKAASQPTSLAPEKLREE
notes: full-length (1-472), C-terminal GFP-strepII removed by TEV; expressed in HEK293 freestyle cells; digitonin then amphipol PMAL-C8; monomer, 53 kDa
As a reminder, the Km is the concentration of substrate that gives half-maximal velocity. With B1, the Km came to 46 µM.
